B1: Chlamydia trachomatis Serovar D native major outer membrane protein (nMOMP), from adherent HeLa 229 cells (natural protein)
chain: LPVGNPAEPSLMIDGILWEGFGGDPCDPCATWCDAISMRVGYYGDFVFDRVLKTDVNKEFQMGAKPTTDTGNSAAPSTLTARENPAYGRHMQDAEMFTNAACMALNIWDRFDVFCTLGATSGYLKGNSASFNLVGLFGDNENQKTVKAESVPNMSFDQSVVELYTDTTFAWSVGARAALWECGCATLGASFQYAQSKPKVEELNVLCNAAEFTINKPKGYVGKEFPLDLTAGTDAATGTKDASIDYHEWQASLALSYRLNMFTPYIGVKWSRASFDADTIRIAQPKSATAIFDTTTLNPTIAGAGDVKTGAEGQLGDTMQIVSLQLNKMKSRKSCGIAVGTTIVDADKYAVTVETRLIDERAAHVNAQFRF
B2: Chlamydia trachomatis Serovar F native major outer membrane protein (nMOMP), from adherent HeLa 229 cells (natural protein)
chain: LPVGNPAEPSLMIDGILWEGFGGDPCDPCTTWCDAISMRMGYYGDFVFDRVLKTDVNKEFEMGEALAGASGNTTSTLSKLVERTNPAYGKHMQDAEMFTNAACMTLNIWDRFDVFCTLGATSGYLKGNSASFNLVGLFGDGVNATKPAADSIPNVQLNQSVVELYTDTTFAWSVGARAALWECGCATLGASFQYAQSKPKIEELNVLCNAAEFTINKPKGYVGKEFPLDLTAGTDAATGTKDASIDYHEWQASLSLSYRLNMFTPYIGVKWSRASFDSDTIRIAQPRLVTPVVDITTLNPTIAGCGSVAGANTEGQISDTMQIVSLQLNKMKSRKSCGIAVGTTIVDADKYAVTVETRLIDERAAHVNAQFRF
B3: Chlamydia muridarum native major outer membrane protein (nMOMP), from adherent HeLa 229 cells (natural protein)
chain: LPVGNPAEPSLMIDGILWEGFGGDPCDPCTTWCDAISLRLGYYGDFVFDRVLKTDVNKQFEMGAAPTGDADLTTAPTPASRENPAYGKHMQDAEMFTNAAYMALNIWDRFDVFCTLGATSGYLKGNSAAFNLVGLFGRDETAVAADDIPNVSLSQAVVELYTDTAFAWSVGARAALWECGCATLGASFQYAQSKPKVEELNVLCNAAEFTINKPKGYVGQEFPLNIKAGTVSATDTKDASIDYHEWQASLALSYRLNMFTPYIGVKWSRASFDADTIRIAQPKLETSILKMTTWNPTISGSGIDVDTKITDTLQIVSLQLNKMKSRKSCGLAIGTTIVDADKYAVTVETRLIDERAAHVNAQFRF
B4: Chlamydia trachomatis Serovar E native major outer membrane protein (nMOMP), from adherent HeLa 229 cells (natural protein)
chain: LPVGNPAEPSLMIDGILWEGFGGDPCDPCTTWCDAISMRMGYYGDFVFDRVLKTDVNKEFQMGDKPTSTTGNATAPTTLTARENPAYGRHMQDAEMFTNAACMALNIWDRFDVFCTLGASSGYLKGNSASFNLVGLFGDNENQSTVKTNSVPNMSLDQSVVELYTDTAFSWSVGARAALWECGCATLGASFQYAQSKPKVEELNVLCNAAEFTINKPKGYVGQEFPLALIAGTDAATGTKDASIDYHEWQASLALSYRLNMFTPYIGVKWSRASFDADTIRIAQPKSATAIFDTTTLNPTIAGAGDVKASAEGQLGDTMQIVSLQLNKMKSRKSCGIAVGTTIVDADKYAVTVETRLIDERAAHVNAQFRF
B5: Chlamydia trachomatis Serovar E native major outer membrane protein (nMOMP), from HeLa suspension cells (natural protein)
chain: LPVGNPAEPSLMIDGILWEGFGGDPCDPCTTWCDAISMRMGYYGDFVFDRVLKTDVNKEFQMGDKPTSTTGNATAPTTLTARENPAYGRHMQDAEMFTNAACMALNIWDRFDVFCTLGASSGYLKGNSASFNLVGLFGDNENQSTVKTNSVPNMSLDQSVVELYTDTAFSWSVGARAALWECGCATLGASFQYAQSKPKVEELNVLCNAAEFTINKPKGYVGQEFPLALIAGTDAATGTKDASIDYHEWQASLALSYRLNMFTPYIGVKWSRASFDADTIRIAQPKSATAIFDTTTLNPTIAGAGDVKASAEGQLGDTMQIVSLQLNKMKSRKSCGIAVGTTIVDADKYAVTVETRLIDERAAHVNAQFRF
B6: Chlamydia trachomatis Serovar E native major outer membrane protein (nMOMP), from CHO suspension cells (natural protein)
chain: LPVGNPAEPSLMIDGILWEGFGGDPCDPCTTWCDAISMRMGYYGDFVFDRVLKTDVNKEFQMGDKPTSTTGNATAPTTLTARENPAYGRHMQDAEMFTNAACMALNIWDRFDVFCTLGASSGYLKGNSASFNLVGLFGDNENQSTVKTNSVPNMSLDQSVVELYTDTAFSWSVGARAALWECGCATLGASFQYAQSKPKVEELNVLCNAAEFTINKPKGYVGQEFPLALIAGTDAATGTKDASIDYHEWQASLALSYRLNMFTPYIGVKWSRASFDADTIRIAQPKSATAIFDTTTLNPTIAGAGDVKASAEGQLGDTMQIVSLQLNKMKSRKSCGIAVGTTIVDADKYAVTVETRLIDERAAHVNAQFRF

Biological target: the molecule itself
Assay: SEC-MALS

Protein	stoichiometry N
B1	2.8
B2	2.85
B3	2.59
B4	2.52
B5	2.3
B6	2.27

— article PMC6201732 (Protein Science : A Publication of the Protein Society, 2018)
